Assay results from the supplement of paper PMC10065799, “High-throughput profiling of sequence recognition by tyrosine kinases and SH2 domains using bacterial peptide display” (eLife, 2023).

Biological target: MERTK (UniProt Q12866)
Assay: phosphorylation enrichment, bacterial display (enrichment ratio); higher = better substrate or ligand; peptides without Tyr show the background
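Further: 11-residue human phosphosite peptides and single-mutation variants displayed on the E. coli surface, counted by deep sequencing, each peptide's frequency after selection divided by its frequency in the unselected input library; frequency after pTyr selection over input frequency; kinase dosed for 20-30% of maximal phosphorylation in three min.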

Sequence of MERTK (Q12866 whole entry, looked up): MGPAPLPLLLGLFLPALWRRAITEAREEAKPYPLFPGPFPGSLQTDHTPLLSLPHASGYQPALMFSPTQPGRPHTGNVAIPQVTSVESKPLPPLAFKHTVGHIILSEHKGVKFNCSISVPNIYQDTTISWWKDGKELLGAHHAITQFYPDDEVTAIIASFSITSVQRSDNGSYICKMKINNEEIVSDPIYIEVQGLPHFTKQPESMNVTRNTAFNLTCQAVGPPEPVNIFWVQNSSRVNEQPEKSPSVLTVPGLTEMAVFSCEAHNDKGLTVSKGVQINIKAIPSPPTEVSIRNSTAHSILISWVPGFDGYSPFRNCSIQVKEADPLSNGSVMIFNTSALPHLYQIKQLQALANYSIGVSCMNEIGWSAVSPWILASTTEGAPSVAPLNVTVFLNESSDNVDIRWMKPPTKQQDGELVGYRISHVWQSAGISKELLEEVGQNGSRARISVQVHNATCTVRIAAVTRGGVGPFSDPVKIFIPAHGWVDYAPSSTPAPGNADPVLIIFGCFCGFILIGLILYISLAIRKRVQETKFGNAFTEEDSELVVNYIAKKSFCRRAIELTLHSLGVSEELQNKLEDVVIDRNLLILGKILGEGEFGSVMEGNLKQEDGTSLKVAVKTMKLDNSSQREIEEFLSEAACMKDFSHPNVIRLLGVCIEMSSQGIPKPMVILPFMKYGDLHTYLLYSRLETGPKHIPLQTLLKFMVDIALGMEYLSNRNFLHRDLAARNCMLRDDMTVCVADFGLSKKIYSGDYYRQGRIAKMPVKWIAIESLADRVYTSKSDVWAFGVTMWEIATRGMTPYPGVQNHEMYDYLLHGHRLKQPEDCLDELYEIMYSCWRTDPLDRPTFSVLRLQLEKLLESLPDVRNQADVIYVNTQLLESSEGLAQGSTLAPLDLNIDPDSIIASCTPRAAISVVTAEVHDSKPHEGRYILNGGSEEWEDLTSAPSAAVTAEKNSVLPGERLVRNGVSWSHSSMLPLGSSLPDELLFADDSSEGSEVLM

Point of comparison: RDEHGYISRCF [HSPB1_Y133_Q128R], phosphorylation enrichment 0.565. Against it:
- AKAEIYEMRPL [COX10_Y97] — higher, 8.29
- FDEFRYRSVIK [CFTR_Y517_YF] — lower, 0.463
- SARSAYQEAMD [SFN_Y151] — lower, 0.38
- VDTFWYKFLKP [EPM2A_Y86_R91P] — lower, 0.471
- QQLQGYVPSNF [FRK_Y99_I100V_YF] — higher, 0.75
- MAFDRYAAICS [OR8H2_Y123_H120Y_YF] — higher, 0.889
- TINPIYEHVGY [CHN1_Y143] — higher, 12.2
- VYSTDCYRVGG [NTRK2_Y706_Y706C] — higher, 7.43
- GRQVIYTENER [GPR143_Y231_G229V] — lower, 0.43
- RPDSPYSRLHD [DOK2_Y271_P274L] — higher, 0.85
- SVVVSYEPPEV [TP53_Y220_P219S] — lower, 0.434
- YEPDAYDDLDQ [ELP5_Y302] — lower, 0.403
- QRAADYFSQQM [GBP6_Y333_YF] — lower, 0.352
- VITTLYIGFLG [KCNQ1_Y267_L262V] — higher, 0.659
- STGRSYAGVAV [KLHL3_Y577] — lower, 0.318
- KNNDGNIDFAE [MCFD2_Y135_Y135N_YF] — higher, 0.589
- EKNANYKEGTF [CLRN1_Y171_I168N_YF] — lower, 0.425
- EKMWTYMPSAE [GRIA4_Y695_R697P] — lower, 0.363
- TTKGSYSLYVR [HCK_Y180_S183Y] — lower, 0.43
- FYLGAYDRFLP [SLC22A5_Y486_V481F] — higher, 4.1
- FEEDSYVTRSQ [RET_Y905_K907T_YF] — lower, 0.47
- DLAGRYYALRS [CKB_Y173_K177R] — higher, 2.19
- ARGTRYRYVSQ [UCN3_Y95] — lower, 0.529
- PGIRMYQVQFN [LRFN1_Y454_YF] — lower, 0.349
- LEVPLYKNGVK [CPS1_Y1069_A1065E] — higher, 0.625
- QTEAQYRFIYM [PTPN11_Y511] — higher, 0.667
- RLLVVYSWTQR [HBB_Y36_P37S] — higher, 1.05
- KACKHYLTKRT [ZBTB5_Y118_T121K] — higher, 0.605
- STSKTYVISRT [RBBP6_Y87] — lower, 0.417
- VDGSLYETHPQ [HK1_Y417_K418E] — higher, 1.18
- KFMVGYEMLAK [GALT_Y339_Q344K] — lower, 0.407
- IIEDPYFGNDF [ACP1_Y132_S137F_YF] — lower, 0.487

System: c-Abl (mouse)
Assay: as above

Point of comparison: RLLVVYSWTQR [HBB_Y36_P37S], phosphorylation enrichment 1. Against it:
- AKAEIYEMRPL [COX10_Y97] — lower, 0.801
- FDEFRYRSVIK [CFTR_Y517_YF] — lower, 0.544
- SARSAYQEAMD [SFN_Y151] — lower, 0.628
- VDTFWYKFLKP [EPM2A_Y86_R91P] — lower, 0.694
- QQLQGYVPSNF [FRK_Y99_I100V_YF] — higher, 1.13
- MAFDRYAAICS [OR8H2_Y123_H120Y_YF] — lower, 0.95
- TINPIYEHVGY [CHN1_Y143] — higher, 5.77
- VYSTDCYRVGG [NTRK2_Y706_Y706C] — lower, 0.808
- GRQVIYTENER [GPR143_Y231_G229V] — lower, 0.537
- RPDSPYSRLHD [DOK2_Y271_P274L] — lower, 0.957
- SVVVSYEPPEV [TP53_Y220_P219S] — lower, 0.749
- YEPDAYDDLDQ [ELP5_Y302] — lower, 0.769
- QRAADYFSQQM [GBP6_Y333_YF] — lower, 0.586
- RDEHGYISRCF [HSPB1_Y133_Q128R] — higher, 1.23
- VITTLYIGFLG [KCNQ1_Y267_L262V] — lower, 0.931
- STGRSYAGVAV [KLHL3_Y577] — lower, 0.361
- KNNDGNIDFAE [MCFD2_Y135_Y135N_YF] — the same, 1
- EKNANYKEGTF [CLRN1_Y171_I168N_YF] — lower, 0.647
- EKMWTYMPSAE [GRIA4_Y695_R697P] — lower, 0.538
- TTKGSYSLYVR [HCK_Y180_S183Y] — lower, 0.666
- FYLGAYDRFLP [SLC22A5_Y486_V481F] — lower, 0.829
- FEEDSYVTRSQ [RET_Y905_K907T_YF] — lower, 0.912
- DLAGRYYALRS [CKB_Y173_K177R] — lower, 0.544
- ARGTRYRYVSQ [UCN3_Y95] — lower, 0.608
- PGIRMYQVQFN [LRFN1_Y454_YF] — lower, 0.636
- LEVPLYKNGVK [CPS1_Y1069_A1065E] — lower, 0.693
- QTEAQYRFIYM [PTPN11_Y511] — higher, 1.5
- KACKHYLTKRT [ZBTB5_Y118_T121K] — higher, 1.05
- STSKTYVISRT [RBBP6_Y87] — lower, 0.423
- VDGSLYETHPQ [HK1_Y417_K418E] — lower, 0.541
- KFMVGYEMLAK [GALT_Y339_Q344K] — lower, 0.51
- IIEDPYFGNDF [ACP1_Y132_S137F_YF] — lower, 0.871

Biological target: FGFR3 (UniProt P22607)
Sequence (P22607 whole entry, looked up): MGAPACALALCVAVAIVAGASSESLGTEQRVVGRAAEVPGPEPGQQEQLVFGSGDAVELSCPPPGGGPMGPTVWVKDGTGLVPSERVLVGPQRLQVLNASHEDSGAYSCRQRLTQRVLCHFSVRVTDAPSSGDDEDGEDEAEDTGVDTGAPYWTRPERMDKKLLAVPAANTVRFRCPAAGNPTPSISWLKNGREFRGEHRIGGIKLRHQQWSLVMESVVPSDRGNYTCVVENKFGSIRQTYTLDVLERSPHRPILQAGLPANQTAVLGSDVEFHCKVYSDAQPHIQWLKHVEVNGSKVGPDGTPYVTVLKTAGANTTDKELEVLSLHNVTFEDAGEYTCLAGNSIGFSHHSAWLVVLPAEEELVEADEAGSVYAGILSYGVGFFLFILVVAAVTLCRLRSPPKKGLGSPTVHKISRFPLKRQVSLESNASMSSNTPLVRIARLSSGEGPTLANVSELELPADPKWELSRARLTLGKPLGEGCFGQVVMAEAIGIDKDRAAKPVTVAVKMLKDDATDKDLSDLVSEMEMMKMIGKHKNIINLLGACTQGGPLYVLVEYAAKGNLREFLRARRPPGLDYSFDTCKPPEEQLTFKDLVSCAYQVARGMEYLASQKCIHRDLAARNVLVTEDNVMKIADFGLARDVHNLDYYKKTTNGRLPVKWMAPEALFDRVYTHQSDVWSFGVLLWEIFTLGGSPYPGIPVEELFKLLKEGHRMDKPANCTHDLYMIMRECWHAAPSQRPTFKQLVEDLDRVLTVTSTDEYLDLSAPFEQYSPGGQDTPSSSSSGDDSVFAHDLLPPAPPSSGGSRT
Assay: as above

Point of comparison: VDTFWYKFLKP [EPM2A_Y86_R91P], phosphorylation enrichment 0.808. Against it:
- AKAEIYEMRPL [COX10_Y97] — lower, 0.672
- FDEFRYRSVIK [CFTR_Y517_YF] — lower, 0.484
- SARSAYQEAMD [SFN_Y151] — lower, 0.539
- QQLQGYVPSNF [FRK_Y99_I100V_YF] — lower, 0.779
- MAFDRYAAICS [OR8H2_Y123_H120Y_YF] — lower, 0.641
- TINPIYEHVGY [CHN1_Y143] — higher, 1.06
- VYSTDCYRVGG [NTRK2_Y706_Y706C] — lower, 0.769
- GRQVIYTENER [GPR143_Y231_G229V] — lower, 0.479
- RPDSPYSRLHD [DOK2_Y271_P274L] — lower, 0.657
- SVVVSYEPPEV [TP53_Y220_P219S] — lower, 0.594
- YEPDAYDDLDQ [ELP5_Y302] — higher, 0.842
- QRAADYFSQQM [GBP6_Y333_YF] — lower, 0.634
- RDEHGYISRCF [HSPB1_Y133_Q128R] — higher, 1.17
- VITTLYIGFLG [KCNQ1_Y267_L262V] — higher, 0.874
- STGRSYAGVAV [KLHL3_Y577] — lower, 0.389
- KNNDGNIDFAE [MCFD2_Y135_Y135N_YF] — lower, 0.683
- EKNANYKEGTF [CLRN1_Y171_I168N_YF] — lower, 0.46
- EKMWTYMPSAE [GRIA4_Y695_R697P] — lower, 0.623
- TTKGSYSLYVR [HCK_Y180_S183Y] — lower, 0.671
- FYLGAYDRFLP [SLC22A5_Y486_V481F] — higher, 0.831
- FEEDSYVTRSQ [RET_Y905_K907T_YF] — higher, 1.08
- DLAGRYYALRS [CKB_Y173_K177R] — higher, 0.811
- ARGTRYRYVSQ [UCN3_Y95] — lower, 0.483
- PGIRMYQVQFN [LRFN1_Y454_YF] — lower, 0.531
- LEVPLYKNGVK [CPS1_Y1069_A1065E] — higher, 1.11
- QTEAQYRFIYM [PTPN11_Y511] — higher, 1.54
- RLLVVYSWTQR [HBB_Y36_P37S] — higher, 0.91
- KACKHYLTKRT [ZBTB5_Y118_T121K] — higher, 1.19
- STSKTYVISRT [RBBP6_Y87] — lower, 0.498
- VDGSLYETHPQ [HK1_Y417_K418E] — lower, 0.607
- KFMVGYEMLAK [GALT_Y339_Q344K] — lower, 0.631
- IIEDPYFGNDF [ACP1_Y132_S137F_YF] — higher, 0.908

Biological target: Fes (UniProt P07332)
Sequence (P07332 whole entry, looked up): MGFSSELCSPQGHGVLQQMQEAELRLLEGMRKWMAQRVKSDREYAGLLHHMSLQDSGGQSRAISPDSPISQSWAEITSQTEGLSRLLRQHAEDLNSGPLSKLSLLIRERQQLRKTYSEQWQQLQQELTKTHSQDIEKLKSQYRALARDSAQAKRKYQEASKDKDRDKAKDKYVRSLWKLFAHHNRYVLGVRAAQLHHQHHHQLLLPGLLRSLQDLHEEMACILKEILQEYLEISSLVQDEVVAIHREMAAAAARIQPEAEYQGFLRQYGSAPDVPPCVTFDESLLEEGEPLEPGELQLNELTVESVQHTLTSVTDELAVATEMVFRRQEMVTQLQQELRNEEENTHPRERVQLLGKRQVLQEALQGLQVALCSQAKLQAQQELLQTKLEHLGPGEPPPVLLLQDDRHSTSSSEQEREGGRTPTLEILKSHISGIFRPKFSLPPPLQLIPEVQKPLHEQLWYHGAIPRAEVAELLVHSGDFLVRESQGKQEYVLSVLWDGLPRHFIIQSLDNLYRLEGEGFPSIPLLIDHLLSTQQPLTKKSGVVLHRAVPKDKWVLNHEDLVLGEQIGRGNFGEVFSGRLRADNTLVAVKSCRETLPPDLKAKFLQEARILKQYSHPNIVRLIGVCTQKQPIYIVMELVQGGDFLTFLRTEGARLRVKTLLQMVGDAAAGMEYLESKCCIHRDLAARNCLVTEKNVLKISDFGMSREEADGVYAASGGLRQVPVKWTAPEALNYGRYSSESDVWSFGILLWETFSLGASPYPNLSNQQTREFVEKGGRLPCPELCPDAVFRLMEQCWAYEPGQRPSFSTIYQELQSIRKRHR
Assay: as above

Point of comparison: TTKGSYSLYVR [HCK_Y180_S183Y], phosphorylation enrichment 1.16. Against it:
- AKAEIYEMRPL [COX10_Y97] — lower, 0.912
- FDEFRYRSVIK [CFTR_Y517_YF] — lower, 0.804
- SARSAYQEAMD [SFN_Y151] — lower, 0.854
- VDTFWYKFLKP [EPM2A_Y86_R91P] — higher, 1.28
- QQLQGYVPSNF [FRK_Y99_I100V_YF] — lower, 1.07
- MAFDRYAAICS [OR8H2_Y123_H120Y_YF] — higher, 1.3
- TINPIYEHVGY [CHN1_Y143] — higher, 8.63
- VYSTDCYRVGG [NTRK2_Y706_Y706C] — the same, 1.16
- GRQVIYTENER [GPR143_Y231_G229V] — lower, 0.89
- RPDSPYSRLHD [DOK2_Y271_P274L] — lower, 0.983
- SVVVSYEPPEV [TP53_Y220_P219S] — lower, 0.918
- YEPDAYDDLDQ [ELP5_Y302] — higher, 1.19
- QRAADYFSQQM [GBP6_Y333_YF] — lower, 0.921
- RDEHGYISRCF [HSPB1_Y133_Q128R] — higher, 1.65
- VITTLYIGFLG [KCNQ1_Y267_L262V] — higher, 1.25
- STGRSYAGVAV [KLHL3_Y577] — lower, 0.466
- KNNDGNIDFAE [MCFD2_Y135_Y135N_YF] — higher, 1.26
- EKNANYKEGTF [CLRN1_Y171_I168N_YF] — lower, 0.757
- EKMWTYMPSAE [GRIA4_Y695_R697P] — lower, 0.841
- FYLGAYDRFLP [SLC22A5_Y486_V481F] — higher, 1.28
- FEEDSYVTRSQ [RET_Y905_K907T_YF] — higher, 1.33
- DLAGRYYALRS [CKB_Y173_K177R] — lower, 0.649
- ARGTRYRYVSQ [UCN3_Y95] — lower, 0.637
- PGIRMYQVQFN [LRFN1_Y454_YF] — lower, 0.863
- LEVPLYKNGVK [CPS1_Y1069_A1065E] — lower, 0.997
- QTEAQYRFIYM [PTPN11_Y511] — higher, 1.29
- RLLVVYSWTQR [HBB_Y36_P37S] — higher, 1.57
- KACKHYLTKRT [ZBTB5_Y118_T121K] — higher, 1.17
- STSKTYVISRT [RBBP6_Y87] — lower, 0.497
- VDGSLYETHPQ [HK1_Y417_K418E] — lower, 0.861
- KFMVGYEMLAK [GALT_Y339_Q344K] — lower, 1.03
- IIEDPYFGNDF [ACP1_Y132_S137F_YF] — higher, 1.43
